B1: library; numbered along this chain (parent)
chain: MRKPRAAVGSGHRKQAASQEGRQKHAKNNSQAKPSACDGLARQPEEVVLQASVSSYHLFRDVAEVTAFRGSLLSWYDQEKRDLPWRRRAEDEMDLDRRAYAVWVSEVMLQQTQVATVINYYTGWMQKWPTLQDLASASLEEVNQLWAGLGYYSRGRRLQEGARKVVEELGGHMPRTAETLQQLLPGVGRYTAGAIASIAFGQATGVVDGNVARVLCRVRAIGADPSSTLVSQQLWGLAQQLVDPARPGDFNQAAMELGATVCTPQRPLCSQCPVESLCRARQRVEQEQLLASGSLSGSPDVEECAPNTGQCHLCLPPSEPWDQTLGVVNFPRKASRKPPREESSATCVLEQPGALGAQILLVQRPNSGLLAGLWEFPSVTWEPSEQLQRKALLQELQRWAGPLPATHLRHLGEVVHTFSHIKLTYQVYGLALEGQTPVTTVPPGARWLTQEEFHTAAVSTAMKKVFRVYQGQQPGTCMGSKRSQVSSPCSRKKPRMGQQVLDNFFRSHISTDAHSLNSAAQ

Variants of: B1
Assay: 8OG:A repair function score (normalized; synonymous = 0, nonsense = -1) (normalized log-likelihood score); higher = more repair activity (WT-like)
Conditions: with 8OG:A DNA repair reporter (GFP) in HEK-293 MUTYH KO cells
Procedure: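 Saturation mutagenesis (NNN codon scan) of the MUTYH cDNA (521-aa nuclear isoform NM_001048174.1 / NP_001041639), stably expressed under doxycycline induction in HEK-293 MUTYH knockout cells. Cells were co-transfected with an 8OG:A-bearing GFP repair reporter plus mCherry and sorted 72 h later into GFP+ and GFP− bins, three replicates per tile. The Rosace log2 enrichment (GFP+ vs GFP−) was converted per tile to a normalized function score with synonymous variants centered at 0 and nonsense variants (codons 1-471) at -1; low-abundance variants were removed.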

Variant | 8OG:A repair function score
G444F | -0.32
A147P | -0.734
T460A | -0.00746
W146I | -0.138
P299D | 0.0184
Q282K | 0.0141
A36H | 0.146
A345V | 0.0157
T112L | -1.42
F376H | -0.879
Q388G | -0.34
Q386H | 0.241
D61E | -0.0493
A194N | -0.737
P44T | 0.166
Q111C | -0.764
S510W | -0.046
L83Y | -0.478
L392N | -1.52
R409I | -0.183
R482P | 0.0273
R398Y | 0.174
T511G | 0.00111
Q310Y | -0.0597

Variant | 8OG:A repair function score
A67L | -0.0838
P442H | 0.0816
V230D | -0.915
F466S | -0.715
F68N | -1.12
L432W | 0.0604
L139K | -0.511
G429P | -1.12
I509M | -0.0347
V207G | -1.03
Y151A | -0.816
G429K | -0.404
L403S | -0.428
V102Y | -1.01
G309N | -0.0326
Q182D | -0.0172
F418A | -0.333
V102N | -1.28
A137Y | -0.928
V65K | 0.00609
M125F | -0.273
R281W | -0.105
T179I | -0.04
G326V | -0.514

Variant | 8OG:A repair function score
T228Q | -0.217
R88N | -0.0146
F59Q | -0.967
S515K | -0.00207
A391D | -0.378
Y151I | -0.244
G471S | 0.0169
E160G | -0.116
Q144V | -0.0203
Q363V | -0.293
L290M | -0.0856
R506E | 0.0109
R189W | -0.343
Q450L | -0.12
R506T | 0.0259
F504Y | 0.0257
R283T | -0.308
G148Q | -0.44
Y151S | -1.29
S298T | 0.00821
P247R | -1
Q202R | -0.0857
L516A | 0.017
M478I | -0.0519

Variant | 8OG:A repair function score
Q240G | -1
K463E | -0.265
E46R | 0.0933
S490N | 0.0157
V284E | -0.033
E168Q | 0.0147
I359V | -0.0354
L237D | -0.692
G475Q | -0.00214
D249W | -0.851
L396G | -0.426
P299I | -0.00528
H514G | 0.0114
G497K | 0.0129
V214Q | -0.911
P320W | -0.179
Q113A | -0.108
N251P | -1.02
H420M | -0.23
D94R | -0.182
T417F | 0.0432
E275R | 0.00881
K3T | 0.144
R156K | 0.00226

Variant | 8OG:A repair function score
L393N | -1.03
M496K | 0.00764
T176E | -0.128
Q397V | 0.0994
E433G | 0.00508
A357V | -0.0294
L158A | -0.675
W447N | -0.921
H420I | -0.666
R156C | -0.162
A357H | -0.147
A89Q | -0.0663
P316M | -0.238
R175M | -0.155
P174W | -1.14
L313G | -0.386
S518G | 0.0246
A192T | -1.07
T424Y | -0.181
A354H | -0.107
I198R | -0.575
C489W | 0.0227
C304S | -0.289
Q386D | -0.076

Variant | 8OG:A repair function score
L257E | -1.08
D91K | 0.00215
P244F | -0.422
G236I | 0.00703
C304T | -0.454
R98M | -0.316
P267G | -0.225
Q472R | 0.0222
G368M | -0.799
Q286W | -7.92e-05
E375D | -0.434
A254M | 0.317
R398C | -0.0446
D94S | -0.0913
A291P | -0.0656
W146A | -0.448
K333Y | -0.0195
Q265R | 0.00654
S270Q | 0.028
Q232M | -0.355
Q450P | -0.118
L95V | -0.00351
E350V | -0.0826
D249A | -0.31

Variant | 8OG:A repair function score
G193T | -0.169
V284H | -0.12
M255I | -0.363
M125K | -0.523
E90M | 0.0018
Q126A | 0.00568
A334S | 0.0289
L360Y | -0.447
H407C | -0.123
A280I | -0.189
C347T | -0.206
W381G | 0.0649
E64Q | 0.00334
K464M | -0.266
V261R | -0.0976
N119F | -0.259
R491M | 0.0281
T324M | 0.0106
I221M | -0.523
G326I | -0.411
L215N | -0.967
A135P | -0.477
C272F | -1.42

— the supplement of paper PMC11908140
